B1: wild-type murine RAD51AP1 fused to mCherry [mouse] / murine RAD51 with a C-terminal EGFP tag [mouse] (parent)
chain 1: MVRPTRNRKPINYSQFEDSGNDSDDDFISSSTPVNKSKTVPKVLKQDKPKPNLKNLQKEEVLPTEPPKKRVALDDKVFQRGLEVALALSVKELPTLTNQVKKSKEKSTDKQGKEKTENTGKPPRVSNCSVASDDVEDLDKITEEGDASSVEGERKSPSQAKAPRRRAPSEGSDGSSANDTESESATGEGSESDPDFDESKESDEDFGVRRSKESKKKTVQKKPAGEKKERKSKPKCEASVTSVDPAPAAIKSGSPSLPQAVGLPSEATRKPAIMCSPSAESKRPKWVPPAASGSRNSSSNALAGTPAKSPSQSLRLGLSRLAPVKRLHPSATSSQVR
chain 2: MAMQMQLEASADTSVEEESFGPQPISRLEQCGINANDVKKLEEAGYHTVEAVAYAPKKELINIKGISEAKADKILTEAAKLVPMGFTTATEFHQRRSEIIQITTGSKELDKLLQGGIETGSITEMFGEFRTGKTQICHTLAVTCQLPIDRGGGEGKAMYIDTEGTFRPERLLAVAERYGLSGSDVLDNVAYARGFNTDHQTQLLYQASAMMVESRYALLIVDSATALYRTDYSGRGELSARQMHLARFLRMLLRLADEFGVAVVITNQVVAQVDGAAMFAADPKKPIGGNIIAHASTTRLYLRKGRGETRICKIYDSPCLPEAEAMFAINADGVGDAKD

Variants of: B1
Experiment: co-immunoprecipitation (IP RAD51AP1, blot RAD51), band quantification
Conditions: asynchronous 293FT cells, transient co-expression, lane 7, parent: 1, read off a plot

ratio to parent	Variant
0.18	chain 1 S309D

Variants of: B1
Experiment: co-immunoprecipitation (IP GFP-RAD51, blot RAD51AP1), band quantification
Conditions: asynchronous 293FT cells, transient co-expression, lane 17, parent: 1, read off a plot

ratio to parent	Variant
0.57	chain 1 S309D

Variants of: B1
Experiment: co-immunoprecipitation (IP RAD51AP1, blot RAD51), band quantification
Conditions: asynchronous 293FT cells, transient co-expression, lane 6, parent: 1, read off a plot

ratio to parent	Variant
0.71	chain 1 S309A

Variants of: B1
Experiment: co-immunoprecipitation (IP GFP-RAD51, blot RAD51AP1), band quantification
Conditions: asynchronous 293FT cells, transient co-expression, lane 16, parent: 1, read off a plot

ratio to parent	Variant
0.53	chain 1 S309A

Variants of: B1
Experiment: co-immunoprecipitation (IP RAD51AP1, blot RAD51), band quantification
Conditions: asynchronous 293FT cells, transient co-expression, lane 8, parent: 1, read off a plot

ratio to parent	Variant
0.95	chain 1 T305A S309A

Variants of: B1
Experiment: co-immunoprecipitation (IP GFP-RAD51, blot RAD51AP1), band quantification
Conditions: asynchronous 293FT cells, transient co-expression, lane 18, parent: 1, read off a plot

ratio to parent	Variant
0.45	chain 1 T305A S309A

Variants of: B1
Experiment: co-immunoprecipitation (IP RAD51AP1, blot RAD51), band quantification
Conditions: asynchronous 293FT cells, transient co-expression, lane 9, parent: 1, read off a plot

ratio to parent	Variant
0.02	chain 1 T305D S309D

Variants of: B1
Experiment: co-immunoprecipitation (IP GFP-RAD51, blot RAD51AP1), band quantification
Conditions: asynchronous 293FT cells, transient co-expression, lane 19, parent: 1, read off a plot

ratio to parent	Variant
0.08	chain 1 T305D S309D

Variants of: B1
Experiment: co-immunoprecipitation (IP RAD51AP1, blot RAD51), band quantification
Conditions: asynchronous 293FT cells, transient co-expression, lane 5, parent: 1, read off a plot

ratio to parent	Variant
0.07	chain 1 T305D

Variants of: B1
Experiment: co-immunoprecipitation (IP GFP-RAD51, blot RAD51AP1), band quantification
Conditions: asynchronous 293FT cells, transient co-expression, lane 15, parent: 1, read off a plot

ratio to parent	Variant
0.32	chain 1 T305D

From PMC7605441
